Values quoted from earlier work as cited in article PMC9583766.

Target: plasma prekallikrein (PK) (Homo sapiens) (UniProt P03952)
UniProt P03952, sequence (P03952 20-638): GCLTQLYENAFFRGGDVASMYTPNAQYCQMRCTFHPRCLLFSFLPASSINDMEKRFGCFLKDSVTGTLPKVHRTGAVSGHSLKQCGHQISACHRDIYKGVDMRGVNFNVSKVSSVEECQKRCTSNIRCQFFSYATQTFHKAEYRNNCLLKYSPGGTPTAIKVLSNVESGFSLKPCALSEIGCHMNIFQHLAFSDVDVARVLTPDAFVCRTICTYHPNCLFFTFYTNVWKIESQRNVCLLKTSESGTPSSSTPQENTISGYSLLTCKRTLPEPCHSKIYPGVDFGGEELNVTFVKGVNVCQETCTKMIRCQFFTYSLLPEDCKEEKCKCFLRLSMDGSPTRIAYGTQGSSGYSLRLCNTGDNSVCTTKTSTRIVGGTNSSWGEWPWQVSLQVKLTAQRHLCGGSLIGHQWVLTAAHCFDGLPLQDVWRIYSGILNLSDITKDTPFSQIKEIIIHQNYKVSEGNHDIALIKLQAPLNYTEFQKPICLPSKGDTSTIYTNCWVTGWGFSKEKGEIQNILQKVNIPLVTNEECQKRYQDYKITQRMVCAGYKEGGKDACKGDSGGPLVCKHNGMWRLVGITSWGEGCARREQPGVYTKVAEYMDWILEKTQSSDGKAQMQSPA

Substance: high-molecular-weight kininogen (nHK) (from UniProt P01042)
- Kd: 12 nM
